Reference: paper PMC9631991 (Biochemistry, 2022)

B1: ATG4b WT (full-length ATG4b) (enzyme)
chain: MDAATLTYDTLRFAEFEDFPETSEPVWILGRKYSIFTEKDEILSDVASRLWFTYRKNFPAIGGTGPTSDTGWGCMLRCGQMIFAQALVCRHLGRDWRWTQRKRQPDSYFSVLNAFIDRKDSYYSIHQIAQMGVGEGKSIGQWYGPNTVAQVLKKLAVFDTWSSLAVHIAMDNTVVMEEIRRLCRTSVPCAGATAFPADSDRHCNGFPAGAEVTNRPSPWRPLVLLIPLRLGLTDINEAYVETLKHCFMMPQSLGVIGGKPNSAHYFIGYVGEELIYLDPHTTQPAVEPTDGCFIPDESFHCQHPPCRMSIAELDPSIAVGFFCKTEDDFNDWCQQVKKLSLLGGALPMFELVELQPSHLACPDVLNLSLDSSDVERLERFFDSEDEDFEILSL
B2: ATG4b-366 (domain or fragment)
chain: MDAATLTYDTLRFAEFEDFPETSEPVWILGRKYSIFTEKDEILSDVASRLWFTYRKNFPAIGGTGPTSDTGWGCMLRCGQMIFAQALVCRHLGRDWRWTQRKRQPDSYFSVLNAFIDRKDSYYSIHQIAQMGVGEGKSIGQWYGPNTVAQVLKKLAVFDTWSSLAVHIAMDNTVVMEEIRRLCRTSVPCAGATAFPADSDRHCNGFPAGAEVTNRPSPWRPLVLLIPLRLGLTDINEAYVETLKHCFMMPQSLGVIGGKPNSAHYFIGYVGEELIYLDPHTTQPAVEPTDGCFIPDESFHCQHPPCRMSIAELDPSIAVGFFCKTEDDFNDWCQQVKKLSLLGGALPMFELVELQPSHLACPDVLN

Columns and labels:
[1] = target: LC3B-115 (residues 1-115) (human, UniProt Q9GZQ8 1-115); assay: ITC; 25 °C; 20 mM HEPES pH 7.5, 200 mM NaCl, 0.5 mM TCEP; 10~68 uM LC3B proteins in the cell, 10-fold higher concentration of ATG4b in the syringe; single-site binding model; conditions: both partners purified
LC3B-I (residues 1-120) = LC3B-I (residues 1-120) (human, UniProt Q9GZQ8 1-120); assay: as above; conditions: both partners purified
[2] = target: pro-LC3B (residues 1-125) (human, UniProt Q9GZQ8 1-120); assay: cell-based or functional assay

Binder	stoichiometry N [1]	Kd (LC3B-I (residues 1-120)) [µM]	stoichiometry N (LC3B-I (residues 1-120))	fold decrease in KM of cleavage of the FRET substrate CFP-proLC3B-YFP, further fold against ATG4b-382 [2] [fold]
B1	0.9 ± 0.2	4.7	0.9 ± 0.2	
B2				2.6
